B1: Meiotic recombination protein REC114 (Homo sapiens), Q7Z4M0 (parent)
chain: MAEAGKVPLSLGLTGGEAAEWPLQRYARCIPSNTRDPPGPCLEAGTAPCPTWKVFDSNEESGYLVLTIVISGHFFIFQGQTLLEGFSLIGSKDWLKIVRRVDCLLFGTTIKDKSRLFRVQFSGESKEQALEHCCSCVQKLAQYITVQVPDGNIQELQLIPGPPRATESQGKDSAKSVPRQPGSHQHSEQQQVCVTAGTGAPDGRTSLTQLAQTLLASEELPHVYEQSAWGAEELGPFLRLCLMDQNFPAFVEEVEKELKKLAGLRN
partner: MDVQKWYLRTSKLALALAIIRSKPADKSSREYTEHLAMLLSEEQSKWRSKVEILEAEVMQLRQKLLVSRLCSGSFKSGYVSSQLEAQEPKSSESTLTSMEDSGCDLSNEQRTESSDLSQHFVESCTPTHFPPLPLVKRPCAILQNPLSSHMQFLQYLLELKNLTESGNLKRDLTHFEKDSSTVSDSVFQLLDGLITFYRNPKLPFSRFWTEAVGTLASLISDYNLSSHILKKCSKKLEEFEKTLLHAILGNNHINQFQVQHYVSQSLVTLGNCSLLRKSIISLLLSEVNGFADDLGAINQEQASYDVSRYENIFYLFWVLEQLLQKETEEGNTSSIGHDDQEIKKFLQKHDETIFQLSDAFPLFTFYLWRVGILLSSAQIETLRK

Variants of: B1
Details: with mei4_human MEI4, A8MW99

| effect of a mutation on the interaction | Variant |
| --- | --- |
| with no effect | C133G |
